Assay results: PMC4613500 (2015)

Assays:
SPR = target: the molecule itself; assay: SPR
[1] = target: the molecule itself; assay: sedimentation velocity analytical ultracentrifugation

Protein	Kd (SPR)	Kd [1]
Chordin ∆C ∆C (C-terminally tolloid-cleaved fragment, lacking vWC4) (protein) AGPEPPVLPIRSEKEPLPVRGAAGCTFGGKVYALDETWHPDLGEPFGVMRCVLCACEAPQWGRRTRGPGRVSCKNIKPECPTPACGQPRQLPGHCCQTCPQERSSSERQPSGLSFEYPRDPEHRSYSDRGEPGAEERARGDGHTDFVALLTGPRSQAVARARVSLLRSSLRFSISYRRLDRPTRIRFSDSNGSVLFEHPAAPTQDGLVCGVWRAVPRLSLRLLRAEQLHVALVTLTHPSGEVWGPLIRHRALAAETFSAILTLEGPPQQGVGGITLLTLSDTEDSLHFLLLFRGLLEPRSGGLTQVPLRLQILHQGQLLRELQANVSAQEPGFAEVLPNLTVQEMDWLVLGELQMALEWAGRPGLRISGHIAARKSCDVLQSVLCGADALIPVQTGAAGSASLTLLGNGSLIYQVQVVGTSSEVVAMTLETKPQRRDQRTVLCHMAGLQPGGHTAVGICPGLGARGAHMLLQNELFLNVGTKDFPDGELRGHVAALPYCGHSARHDTLPVPLAGALVLPPVKSQAAGHAWLSLDTHCHLHYEVLLAGLGGSEQGTVTAHLLGPPGTPGPRRLLKGFYGSEAQGVVKDLEPELLRHLAKGMASLMITTKGSPRGELRGQVHIANQCEVGGLRLEAAGAEGVRALGAPDTASAAPPVVPGLPALAPAKPGGPGRPRDPNTCFFEGQQRPHGARWAPNYDPLCSLCTCQRRTVICDPVVCPPPSCPHPVQAPDQCCPVCPEKQDVRDLPGLPRSRDPGEGCYFDGDRSWRAAGTRWHPVVPPFGLIKCAVCTCKGGTGEVHCEKVQCPRLACAQPVRVNPTDCCKQCPVGSGA	3.15 nM	
Chordin (protein) AGPEPPVLPIRSEKEPLPVRGAAGCTFGGKVYALDETWHPDLGEPFGVMRCVLCACEAPQWGRRTRGPGRVSCKNIKPECPTPACGQPRQLPGHCCQTCPQERSSSERQPSGLSFEYPRDPEHRSYSDRGEPGAEERARGDGHTDFVALLTGPRSQAVARARVSLLRSSLRFSISYRRLDRPTRIRFSDSNGSVLFEHPAAPTQDGLVCGVWRAVPRLSLRLLRAEQLHVALVTLTHPSGEVWGPLIRHRALAAETFSAILTLEGPPQQGVGGITLLTLSDTEDSLHFLLLFRGLLEPRSGGLTQVPLRLQILHQGQLLRELQANVSAQEPGFAEVLPNLTVQEMDWLVLGELQMALEWAGRPGLRISGHIAARKSCDVLQSVLCGADALIPVQTGAAGSASLTLLGNGSLIYQVQVVGTSSEVVAMTLETKPQRRDQRTVLCHMAGLQPGGHTAVGICPGLGARGAHMLLQNELFLNVGTKDFPDGELRGHVAALPYCGHSARHDTLPVPLAGALVLPPVKSQAAGHAWLSLDTHCHLHYEVLLAGLGGSEQGTVTAHLLGPPGTPGPRRLLKGFYGSEAQGVVKDLEPELLRHLAKGMASLMITTKGSPRGELRGQVHIANQCEVGGLRLEAAGAEGVRALGAPDTASAAPPVVPGLPALAPAKPGGPGRPRDPNTCFFEGQQRPHGARWAPNYDPLCSLCTCQRRTVICDPVVCPPPSCPHPVQAPDQCCPVCPEKQDVRDLPGLPRSRDPGEGCYFDGDRSWRAAGTRWHPVVPPFGLIKCAVCTCKGGTGEVHCEKVQCPRLACAQPVRVNPTDCCKQCPVGSGAHPQLGDPMQADGPRGCRFAGQWFPESQSWHPSVPPFGEMSCITCRCGAGVPHCERDDCSLPLSCGSGKESRCCSRCTAHRRPAPETRTDPELEKEAEGS	3.05 nM	3300 nM
